Experimental data taken from paper PMC7913688, “Human Rev1 relies on insert-2 to promote selective binding and accurate replication of stabilized G-quadruplex motifs”.

T1: hRev1 330-833 E466K (human, UniProt Q9UBZ9 330-833, E466K)
T1 sequence: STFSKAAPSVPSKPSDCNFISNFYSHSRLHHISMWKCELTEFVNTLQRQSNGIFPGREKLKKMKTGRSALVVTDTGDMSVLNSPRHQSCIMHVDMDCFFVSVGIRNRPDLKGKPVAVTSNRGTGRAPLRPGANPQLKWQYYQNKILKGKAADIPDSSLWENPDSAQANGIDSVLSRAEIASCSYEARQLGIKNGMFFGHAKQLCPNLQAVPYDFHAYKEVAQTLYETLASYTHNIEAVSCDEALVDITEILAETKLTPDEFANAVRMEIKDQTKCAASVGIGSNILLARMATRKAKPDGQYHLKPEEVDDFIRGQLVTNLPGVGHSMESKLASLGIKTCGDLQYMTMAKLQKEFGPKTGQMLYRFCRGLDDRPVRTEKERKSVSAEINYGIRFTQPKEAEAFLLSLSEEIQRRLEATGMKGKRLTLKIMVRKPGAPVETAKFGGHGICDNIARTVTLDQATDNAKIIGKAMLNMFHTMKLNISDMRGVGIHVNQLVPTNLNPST

T2: hRev1 330-833 L358A (human, UniProt Q9UBZ9 330-833, L358A)
T2 sequence: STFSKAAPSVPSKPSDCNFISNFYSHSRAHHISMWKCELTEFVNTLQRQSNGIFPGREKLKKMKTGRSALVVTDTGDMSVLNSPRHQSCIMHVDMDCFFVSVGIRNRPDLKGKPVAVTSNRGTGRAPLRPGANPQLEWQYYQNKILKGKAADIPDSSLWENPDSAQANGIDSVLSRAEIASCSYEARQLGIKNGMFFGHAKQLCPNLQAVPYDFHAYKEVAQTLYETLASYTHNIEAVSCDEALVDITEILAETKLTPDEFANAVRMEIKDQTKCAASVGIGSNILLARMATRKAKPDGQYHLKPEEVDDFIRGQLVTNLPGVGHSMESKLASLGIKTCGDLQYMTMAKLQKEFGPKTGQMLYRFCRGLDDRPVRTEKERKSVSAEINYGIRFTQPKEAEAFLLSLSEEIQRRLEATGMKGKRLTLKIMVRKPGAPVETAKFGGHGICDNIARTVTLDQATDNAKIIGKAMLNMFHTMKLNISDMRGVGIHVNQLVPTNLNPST

T3: hRev1 330-833 E466A (human, UniProt Q9UBZ9 330-833, E466A)
T3 sequence: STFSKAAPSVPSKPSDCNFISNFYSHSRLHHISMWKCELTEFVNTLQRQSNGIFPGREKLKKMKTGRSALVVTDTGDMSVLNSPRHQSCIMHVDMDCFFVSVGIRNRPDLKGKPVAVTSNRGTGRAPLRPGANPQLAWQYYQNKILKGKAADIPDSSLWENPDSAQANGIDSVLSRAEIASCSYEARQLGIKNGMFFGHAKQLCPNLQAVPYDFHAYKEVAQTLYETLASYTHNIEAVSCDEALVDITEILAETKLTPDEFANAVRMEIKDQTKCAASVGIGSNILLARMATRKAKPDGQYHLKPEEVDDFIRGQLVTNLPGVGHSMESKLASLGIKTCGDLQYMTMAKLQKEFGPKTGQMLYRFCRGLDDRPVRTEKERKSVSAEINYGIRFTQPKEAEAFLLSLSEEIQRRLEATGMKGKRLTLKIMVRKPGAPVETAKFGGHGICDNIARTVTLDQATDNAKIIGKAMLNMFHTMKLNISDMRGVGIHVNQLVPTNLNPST

T4: hRev1 330-833 Y470A (human, UniProt Q9UBZ9 330-833, Y470A)
T4 sequence: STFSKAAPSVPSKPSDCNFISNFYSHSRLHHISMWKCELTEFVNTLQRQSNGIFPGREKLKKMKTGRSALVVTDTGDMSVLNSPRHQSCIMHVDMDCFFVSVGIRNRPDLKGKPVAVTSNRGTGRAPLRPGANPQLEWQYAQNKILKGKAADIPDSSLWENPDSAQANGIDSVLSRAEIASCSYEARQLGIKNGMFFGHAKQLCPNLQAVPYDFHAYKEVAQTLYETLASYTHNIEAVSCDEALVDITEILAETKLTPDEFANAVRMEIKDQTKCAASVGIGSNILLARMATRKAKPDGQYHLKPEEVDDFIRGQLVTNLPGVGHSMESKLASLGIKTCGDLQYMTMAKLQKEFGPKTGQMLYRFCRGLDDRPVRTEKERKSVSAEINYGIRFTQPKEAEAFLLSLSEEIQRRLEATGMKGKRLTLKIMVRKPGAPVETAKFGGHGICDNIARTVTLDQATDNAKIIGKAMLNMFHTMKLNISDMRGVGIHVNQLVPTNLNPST

B1: Myc 14/23 ss G4 (structured_DNA)
DNA: AGGGTGGGTAGGGTGGGTTATGAGATGAT
B2: Non-G4 Myc control ss (ssDNA)
DNA: AGCGTGCGTAGCGTGCGTTATGAGATGAT

Key:
Test in all cases: fluorescence polarization; 100 mM KCl?; Fluorescence polarization: 1 nM FAM-DNA, 100 mM KCl or LiCl; DNA annealed in 50 mM HEPES pH 7.5; full buffer as in cited ref 17, temperature not stated. Footprinting: 50 mM HEPES pH 7.5, 100 mM KCl, 10 uM protein, 30 uM ssDNA, room temperature
Conditions in all cases: protein: recombinant, label: 5'-FAM
[1] = target: T1, hRev1 330-833 E466K
[2] = target: T2, hRev1 330-833 L358A
[3] = target: T3, hRev1 330-833 E466A
[4] = target: T4, hRev1 330-833 Y470A
[5] = parallel G4 (1:2:1 loops) in K+

| Binder | Kd [1, 5] [nM] | Kd [2, 5] [nM] | Kd [3, 5] [nM] | Kd [4, 5] [nM] | Kd [1] [nM] | Kd [2] [nM] | Kd [3] [nM] | Kd [4] [nM] |
| --- | --- | --- | --- | --- | --- | --- | --- | --- |
| B1 | 43 ± 16 | 77 ± 8 | 280 ± 20 | 180 ± 30 | – | – | – | – |
| B2 | – | – | – | – | 1300 ± 300 | 660 ± 140 | 1100 ± 130 | 740 ± 180 |
